We go through 5 molecules from PMC8298264, “Function of cofactor Akirin2 in the regulation of gene expression in model human neutrophil-like HL60 cells” (Bioscience Reports, 2021).

The assay deals with human HL60 cells. In words: SWATH-MS proteomics, differential protein representation, akirin2 KO vs WT HL60 cells. The format is cell-based. The conditions noted are these: akirin2 KO vs WT HL60 cells. The essentials:
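Read-out is label-free SWATH-MS protein area, globally normalized to total detected-protein area, with identifications held at 1% FDR against a library from information-dependent acquisition.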

Where [1] appears, read: sheet "Under-represented in KO".
[2] abbreviates: SWATH-MS, under-represented in KO.

B1: sp¦Q15758¦AAAT_HUMAN (protein, UniProt Q15758 1-541, looked up)
Neutral amino acid …: MVADPPRDSKGLAAAEPTANGGLALASIEDQGAAAGGYCGSRDQVRRCLRANLLVLLTVVAVVAGVALGLGVSGAGGALALGPERLSAFVFPGELLLRLLRMIILPLVVCSLIGGAASLDPGALGRLGAWALLFFLVTTLLASALGVGLALALQPGAASAAINASVGAAGSAENAPSKEVLDSFLDLARNIFPSNLVSAAFRSYSTTYEERNITGTRVKVPVGQEVEGMNILGLVVFAIVFGVALRKLGPEGELLIRFFNSFNEATMVLVSWIMWYAPVGIMFLVAGKIVEMEDVGLLFARLGKYILCCLLGHAIHGLLVLPLIYFLFTRKNPYRFLWGIVTPLATAFGTSSSSATLPLMMKCVEENNGVAKHISRFILPIGATVNMDGAALFQCVAAVFIAQLSQQSLDFVKIITILVTATASSVGAAGIPAGGVLTLAIILEAVNLPVDHISLILAVDWLVDRSCTVLNVEGDALGAGLLQNYVDRTESRSTEPELIQVKSELPLDPLPVPTEEGNPLLKHYRGPAGDATVASEKESVM
B1: under setting [1], the “Fold Change” value turned out to be 0.3333 and the “Log (Fold Change)” value is -0.4771.

B2: sp¦P48449¦LSS_HUMAN (protein, UniProt P48449 2-732, looked up)
Lanosterol synthase: TEGTCLRRRGGPYKTEPATDLGRWRLNCERGRQTWTYLQDERAGREQTGLEAYALGLDTKNYFKDLPKAHTAFEGALNGMTFYVGLQAEDGHWTGDYGGPLFLLPGLLITCHVARIPLPAGYREEIVRYLRSVQLPDGGWGLHIEDKSTVFGTALNYVSLRILGVGPDDPDLVRARNILHKKGGAVAIPSWGKFWLAVLNVYSWEGLNTLFPEMWLFPDWAPAHPSTLWCHCRQVYLPMSYCYAVRLSAAEDPLVQSLRQELYVEDFASIDWLAQRNNVAPDELYTPHSWLLRVVYALLNLYEHHHSAHLRQRAVQKLYEHIVADDRFTKSISIGPISKTINMLVRWYVDGPASTAFQEHVSRIPDYLWMGLDGMKMQGTNGSQIWDTAFAIQALLEAGGHHRPEFSSCLQKAHEFLRLSQVPDNPPDYQKYYRQMRKGGFSFSTLDCGWIVSDCTAEALKAVLLLQEKCPHVTEHIPRERLCDAVAVLLNMRNPDGGFATYETKRGGHLLELLNPSEVFGDIMIDYTYVECTSAVMQALKYFHKRFPEHRAAEIRETLTQGLEFCRRQQRADGSWEGSWGVCFTYGTWFGLEAFACMGQTYRDGTACAEVSRACDFLLSRQMADGGWGEDFESCEERRYLQSAQSQIHNTCWAMMGLMAVRHPDIEAQERGVRCLLEKQLPNGDWPQENIAGVFNKSCAISYTSYRNIFPIWALGRFSQLYPERALAGHP
Turning to B2, under setting [2], the “Fold Change” value is on record as 0.7416 and the “Log (Fold Change)” value was -0.1298.

B3: sp¦P49916¦DNLI3_HUMAN (protein, UniProt P49916 43-1009, looked up)
DNA ligase 3: LLHGHPLFLRRKPVLSFQGSHLRSRATYLVFLPGLHVGLCSGPCEMAEQRFCVDYAKRGTAGCKKCKEKIVKGVCRIGKVVPNPFSESGGDMKEWYHIKCMFEKLERARATTKKIEDLTELEGWEELEDNEKEQITQHIADLSSKAAGTPKKKAVVQAKLTTTGQVTSPVKGASFVTSTNPRKFSGFSAKPNNSGEAPSSPTPKRSLSSSKCDPRHKDCLLREFRKLCAMVADNPSYNTKTQIIQDFLRKGSAGDGFHGDVYLTVKLLLPGVIKTVYNLNDKQIVKLFSRIFNCNPDDMARDLEQGDVSETIRVFFEQSKSFPPAAKSLLTIQEVDEFLLRLSKLTKEDEQQQALQDIASRCTANDLKCIIRLIKHDLKMNSGAKHVLDALDPNAYEAFKASRNLQDVVERVLHNAQEVEKEPGQRRALSVQASLMTPVQPMLAEACKSVEYAMKKCPNGMFSEIKYDGERVQVHKNGDHFSYFSRSLKPVLPHKVAHFKDYIPQAFPGGHSMILDSEVLLIDNKTGKPLPFGTLGVHKKAAFQDANVCLFVFDCIYFNDVSLMDRPLCERRKFLHDNMVEIPNRIMFSEMKRVTKALDLADMITRVIQEGLEGLVLKDVKGTYEPGKRHWLKVKKDYLNEGAMADTADLVVLGAFYGQGSKGGMMSIFLMGCYDPGSQKWCTVTKCAGGHDDATLARLQNELDMVKISKDPSKIPSWLKVNKIYYPDFIVPDPKKAAVWEITGAEFSKSEAHTADGISIRFPRCTRIRDDKDWKSATNLPQLKELYQLSKEKADFTVVAGDEGSSTTGGSSEENKGPSGSAVSRKAPSKPSASTKKAEGKLSNSNSKDGNMQTAKPSAMKVGEKLATKSSPVKVGEKRKAADETLCQTKVLLDIFTGVRLYLPPSTPDFSRLRRYFVAFDGDLVQEFDMTSATHVLGSRDKNPAAQQVSPEWIWACIRKRRLVAPC
Regarding B3, under setting [2], the “Fold Change” value is 0.7417 and the “Log (Fold Change)” value was -0.1297.

B4: sp¦O15173¦PGRC2_HUMAN (protein, UniProt O15173 1-223, looked up)
Membrane-associated …: MAAGDGDVKLGTLGSGSESSNDGGSESPGDAGAAAEGGGWAAAALALLTGGGEMLLNVALVALVLLGAYRLWVRWGRRGLGAGAGAGEESPATSLPRMKKRDFSLEQLRQYDGSRNPRILLAVNGKVFDVTKGSKFYGPAGPYGIFAGRDASRGLATFCLDKDALRDEYDDLSDLNAVQMESVREWEMQFKEKYDYVGRLLKPGEEPSEYTDEEDTKDHNKQD
With B4, under setting [2], the “Fold Change” value is on record as 0.7369 and the “Log (Fold Change)” value is reported as -0.1326.

B5: sp¦O14776¦TCRG1_HUMAN (protein, UniProt O14776 1-1098, looked up)
Transcription elongation …: MAERGGDGGESERFNPGELRMAQQQALRFRGPAPPPNAVMRGPPPLMRPPPPFGMMRGPPPPPRPPFGRPPFDPNMPPMPPPGGIPPPMGPPHLQRPPFMPPPMSSMPPPPGMMFPPGMPPVTAPGTPALPPTEEIWVENKTPDGKVYYYNARTRESAWTKPDGVKVIQQSELTPMLAAQAQVQAQAQAQAQAQAQAQAQAQAQAQAQAQAQAQAQAQAQAQAQAQAQAQAQAQAQAQAQAQVQAQVQAQVQAQAVGASTPTTSSPAPAVSTSTSSSTPSSTTSTTTTATSVAQTVSTPTTQDQTPSSAVSVATPTVSVSTPAPTATPVQTVPQPHPQTLPPAVPHSVPQPTTAIPAFPPVMVPPFRVPLPGMPIPLPGVAMMQIVSCPYVKTVATTKTGVLPGMAPPIVPMIHPQVAIAASPATLAGATAVSEWTEYKTADGKTYYYNNRTLESTWEKPQELKEKEKLEEKIKEPIKEPSEEPLPMETEEEDPKEEPIKEIKEEPKEEEMTEEEKAAQKAKPVATAPIPGTPWCVVWTGDERVFFYNPTTRLSMWDRPDDLIGRADVDKIIQEPPHKKGMEELKKLRHPTPTMLSIQKWQFSMSAIKEEQELMEEINEDEPVKAKKRKRDDNKDIDSEKEAAMEAEIKAARERAIVPLEARMKQFKDMLLERGVSAFSTWEKELHKIVFDPRYLLLNPKERKQVFDQYVKTRAEEERREKKNKIMQAKEDFKKMMEEAKFNPRATFSEFAAKHAKDSRFKAIEKMKDREALFNEFVAAARKKEKEDSKTRGEKIKSDFFELLSNHHLDSQSRWSKVKDKVESDPRYKAVDSSSMREDLFKQYIEKIAKNLDSEKEKELERQARIEASLREREREVQKARSEQTKEIDREREQHKREEAIQNFKALLSDMVRSSDVSWSDTRRTLRKDHRWESGSLLEREEKEKLFNEHIEALTKKKREHFRQLLDETSAITLTSTWKEVKKIIKEDPRCIKFSSSDRKKQREFEEYIRDKYITAKADFRTLLKETKFITYRSKKLIQESDQHLKDVEKILQNDKRYLVLDCVPEERRKLIVAYVDDLDRRGPPPPPTASEPTRRSTK
Take B5: under setting [2], the “Fold Change” value is on record as 0.7373 and the “Log (Fold Change)” value is -0.1323.
